Data from doi:10.1101/2024.10.23.619882.

What was measured:
Experiment in all cases: pull-down
[1] = target: EGFP-tagged NHSL1-F1 with the two Abi binding sites mutated (human)
[2] = target: EGFP-tagged NHSL1-F1 with all 11 EndoA2 binding sites mutated (human)
[3] = target: EGFP-tagged NHSL1-F1 with the 9 EndoA2 sites that do not bind Abi mutated (human)
[4] = target: EGFP-tagged NHSL1-F1 with both FP4 motifs mutated (human)
[5] = target: EGFP-tagged NHSL1-F1 with all 11 EndoA2 binding sites and both FP4 motifs mutated (human)

## Myc-tagged wild-type EndoA2 (endophilin A2) (from UniProt O35964 1-368) (natural protein)
[1]
  fold reduction in binding against wild-type NHSL1: 5 fold
[2]
  fold reduction in binding against wild-type NHSL1: 5 fold
[3]
  fold reduction in binding against wild-type NHSL1: 5 fold
[4]
  fold reduction in binding against wild-type NHSL1: 2 fold
[5]
  fold reduction in binding against wild-type NHSL1: 5 fold
